Test results published in the supplement of paper PMC9732359.
± gives the uncertainty stated by the source.

Experiment: protein stability index of a GFP-peptide fusion (yeast GPS) (PSI 1-4); higher = more stable; sorted into four equal gates, so the index is relative within each strain
Settings: pdr5∆
How it was run: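 Plasmids isolated from each sorting gate were PCR-amplified and Illumina-sequenced, and barcodes assigned the reads to strains. The gates, four of equal size, were set by GFP/Cherry fluorescence ratio on mid-log cultures in leucine-free medium. These cultures were yeast carrying a pooled library of tiled 17-residue yeast protein peptides fused downstream of GFP on a plasmid that also expresses Cherry. The protein stability index is the sum of every gate's read frequency times its gate number.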

Q: For VFLFDIEKVDRENMICK [RRI2], which protein stability index is on record?
A: 3.24 ± 0.14

Same assay, conditions: san1∆

Q: Which protein stability index does the source give for TPPAIEHKPVSPDKIGT [SSN2] here?
A: 3.12 ± 0.076

Q: With TPPDDLHPYVPSSKPQE [SRB8] as the sequence, how does the protein stability index read?
A: 2.93 ± 0.048

Q: With TPYNADFDGDEMNLHVP [RPO31] as the sequence, how does the protein stability index read?
A: 3.07 ± 0.075

Q: With TQARVITGNKIMRILKS [RPS13] as the sequence, how does the protein stability index read?
A: 1.18 ± 0.12

Q: With TQIVAKFPETSYPILNE [SIN4] as the sequence, how does the protein stability index read?
A: 2.91 ± 0.081

Q: For TQLSYLISSSLSNLSKD [YCS4], which protein stability index is on record?
A: 1.63 ± 0.074

Q: For TQSYNNQNTLKEISARR [POP1], which protein stability index is on record?
A: 2.24 ± 0.063

Q: With TRDDLLTILMRSIMKNR [RRI2] as the sequence, how does the protein stability index read?
A: 2.22 ± 0.29

Q: For TRLTAYQELAYRATSLD [YML031W/NDC1], which protein stability index is on record?
A: 3.32 ± 0.072

Q: With TRMQRGHRADVGGQFSK [REC8] as the sequence, how does the protein stability index read?
A: 3.27 ± 0.074

Q: Which protein stability index does the source give for TRNSLGNVIQFIYGEDG [RPO21] here?
A: 3.25 ± 0.042

Q: With TRNSNNLAIVELVRLLI [BRR2] as the sequence, how does the protein stability index read?
A: 2.53 ± 0.066

Q: For TRPYILERARDVNIVNR [YCG1], which protein stability index is on record?
A: 3.48 ± 0.18

Q: For TRSHFNALYDTLLESNL [RPN6], which protein stability index is on record?
A: 2.65 ± 0.047

Q: Which protein stability index does the source give for TSAHLKLKEMQKVLNAH [SMC4] here?
A: 2.63 ± 0.096

Q: For TSAKEPSENDVFYRMQQ [RPO31], which protein stability index is on record?
A: 3.13 ± 0.14

Q: Which protein stability index does the source give for TSDLVKSLGLKLPLSVI [RPS17A] here?
A: 1.86 ± 0.16

Q: With TSEMKVLSIPPANHLQS [YGL100W/SEH1] as the sequence, how does the protein stability index read?
A: 2.39 ± 0.081

Q: Which protein stability index does the source give for TSFEQGEITFDGIGGLT [RPT4] here?
A: 3.05 ± 0.066

Q: Which protein stability index does the source give for TSGTNIAGTFNVGKPDQ [YOR098C/NUP1] here?
A: 3.27 ± 0.079

Q: For TSIANAFRRIMISEVPS [RPC40], which protein stability index is on record?
A: 2.45 ± 0.061

Q: For TSKQHKRSGHRTAPKSD [RPL18A], which protein stability index is on record?
A: 3.1 ± 0.14

Q: With TSLFGSSSAQQTKSNGT [YJL041W/NSP1] as the sequence, how does the protein stability index read?
A: 2.71 ± 0.13

Q: With TSLFHKFILSGFIFTSM [RRI2] as the sequence, how does the protein stability index read?
A: 1.94 ± 0.07

Q: Which protein stability index does the source give for TSNASMNTTLGSIGSRK [YAR002W/NUP60] here?
A: 3.37 ± 0.063

Q: With TSPGFGVSSPGFSPTSP [RPO21] as the sequence, how does the protein stability index read?
A: 2.5 ± 0.058

Q: With TSPSYSPTSPSYSPTSP [RPO21] as the sequence, how does the protein stability index read?
A: 2.77 ± 0.033

Q: With TSQHSDSLTQNNNNAPI [YOR098C/NUP1] as the sequence, how does the protein stability index read?
A: 2.94 ± 0.043

Q: With TTARNDLGVVFARAANG [CSL4] as the sequence, how does the protein stability index read?
A: 1.87 ± 0.14

Q: For TTESNSRLKALNLQFKA [YLR335W/NUP2], which protein stability index is on record?
A: 3.15 ± 0.066

Q: Which protein stability index does the source give for TTFEYIIKERALLSKVK [SNF2] here?
A: 1.41 ± 0.071

Q: For TTFRNEYGKHDFKNEES [MED8], which protein stability index is on record?
A: 3.14 ± 0.051

Q: With TTFTHCEIHPSMILGVA [RPB2] as the sequence, how does the protein stability index read?
A: 1.3 ± 0.14

Q: Which protein stability index does the source give for TTFTKVAAKWNTSLISL [PRP8] here?
A: 2.4 ± 0.082

Q: With TTGISSTGAADGGYNAQ [SMC2] as the sequence, how does the protein stability index read?
A: 3.23 ± 0.069

Q: Which protein stability index does the source give for TTIQTEKVRPTPGEVAS [MCD1] here?
A: 2.8 ± 0.04

Q: Which protein stability index does the source give for TTKERKKSRLGNSFHLM [PRP8] here?
A: 2.57 ± 0.062

Q: Which protein stability index does the source give for TTLDAEKVFTQGLNILE [FAS1] here?
A: 3.32 ± 0.091

Q: With TTQRRYEKAQKDLENAQ [SMC1] as the sequence, how does the protein stability index read?
A: 3.2 ± 0.052

Q: Which protein stability index does the source give for TTVPFKESDDPSIPLVI [POP1] here?
A: 2.87 ± 0.054

Q: For TVKFKHMDYDGNIVKEF [YMR129W/POM152], which protein stability index is on record?
A: 2.67 ± 0.094

Q: For TVMFFYHNKHMMCDFGT [DIB1], which protein stability index is on record?
A: 2.6 ± 0.046

Q: With TVRKSIACVLTVINEQQ [RPL35A] as the sequence, how does the protein stability index read?
A: 2.21 ± 0.079

Q: With TWIHSEIEELKSSIQNL [SMC3] as the sequence, how does the protein stability index read?
A: 2.29 ± 0.21

Q: With TYDMVGGLTKQIKEIKE [RPT6] as the sequence, how does the protein stability index read?
A: 1.89 ± 0.23

Q: Which protein stability index does the source give for TYEAIDVPGRELKYELI [RPB2] here?
A: 3.1 ± 0.18

Q: With TYGFLTPNLWAEQPLPV [RPS2] as the sequence, how does the protein stability index read?
A: 1.37 ± 0.11

Q: With TYQLCVRLRSNVIKTGI [RPN3] as the sequence, how does the protein stability index read?
A: 3.27 ± 0.084

Q: With TYRYVSVSVLVDRLKIG [RPS25A] as the sequence, how does the protein stability index read?
A: 1.72 ± 0.072

Q: Which protein stability index does the source give for TYSTPKRPYESSRLDAE [RPS9A] here?
A: 2.93 ± 0.082

Q: For VAAASKILSNLVYQYKG [PRE2], which protein stability index is on record?
A: 2.54 ± 0.078

Q: For VAALVSLTEKFSQTVAD [ECM29], which protein stability index is on record?
A: 1.8 ± 0.14

Q: For VAGAIRAGIIIAKLSVI [RPS2], which protein stability index is on record?
A: 1.4 ± 0.13

Q: Which protein stability index does the source give for VAKLANWFLEVYASGNP [YML031W/NDC1] here?
A: 1.89 ± 0.12

Q: With VAPFMIKYEFNGIPLKS [YMR129W/POM152] as the sequence, how does the protein stability index read?
A: 2.38 ± 0.083

Q: For VCMHCGKLLLDEHNELM [RPO21], which protein stability index is on record?
A: 2.77 ± 0.28

Q: With VDENDEVLLAGFGRKGK [RPS23A] as the sequence, how does the protein stability index read?
A: 1.15 ± 0.11

Q: With VDFACCTNLTNRTLYEL [GRR1] as the sequence, how does the protein stability index read?
A: 2.26 ± 0.06

Q: For VDGMAKVPIGLILQRLK [RGR1], which protein stability index is on record?
A: 2.22 ± 0.15

Q: With VDIGGKQHAVLMLGSVN [RRP4] as the sequence, how does the protein stability index read?
A: 2.68 ± 0.06

Q: Which protein stability index does the source give for VDKALIAEIKKTPLLKQ [RPL6A] here?
A: 1.92 ± 0.16

Q: Which protein stability index does the source give for VDLLQFPWLNAIKYRPT [POP3] here?
A: 2.36 ± 0.15

Q: Which protein stability index does the source give for VDNENNKPAIKEDSTIQ [SWI3] here?
A: 3.08 ± 0.058

Q: With VDPRIINSENDYSRKQL [NUT1] as the sequence, how does the protein stability index read?
A: 2.78 ± 0.082

Q: For VDSGSNDAMAGGFTAYG [RPO21], which protein stability index is on record?
A: 3.37 ± 0.26

Q: Which protein stability index does the source give for VDSLDPFSEGVTFSVMP [SMC4] here?
A: 2.2 ± 0.13

Q: For VDTGLQPQHPHYVSTSK [YLR018C/POM34], which protein stability index is on record?
A: 2.88 ± 0.05

Q: Which protein stability index does the source give for VDTLHNKEGTLEQREQN [SSN2] here?
A: 3.21 ± 0.058

Q: For VEDDLVTVQTELNEEKK [SMC2], which protein stability index is on record?
A: 2.55 ± 0.08

Q: Which protein stability index does the source give for VEDELTESIALSSMRFK [RRI1] here?
A: 3.21 ± 0.062

Q: For VEECPQYIRTLVSEART [SSN8], which protein stability index is on record?
A: 1.6 ± 0.14

Q: With VEGHLFEIIDEASKKSA [FAS1] as the sequence, how does the protein stability index read?
A: 3.22 ± 0.06

Q: Which protein stability index does the source give for VELTYSLNNSDSLISGV [BRR2] here?
A: 3.14 ± 0.088

Q: With VENGTTSIGIKCNDGVV [PRE10] as the sequence, how does the protein stability index read?
A: 1.35 ± 0.21

Q: For VEQGYEDAFNFWFDKLV [YCG1], which protein stability index is on record?
A: 3.38 ± 0.1
